Reference: patent publication US20060116325A1, “Methods and compositions for inhibiting hiv-coreceptor interactions” (priority 2001, published 2006)

Test system: HIV-1JRFL
Test: HIV-1JRFL infection of monocyte-derived macrophages, p24 ELISA
Assay type: cell-based
Conditions: peptide 1 hr before virus, p24 after 72 hr; FIG. 3
Procedure: Monocyte-derived macrophages were treated with the designated concentrations of the indicated peptide for a period of 1 hr prior to addition of HIV-1JRFL. After 2 hr, cells were washed, and viral replication was determined after 72 hr by p24 analysis. Results are representative of 4 independent experiments.
PBMCs were obtained from whole blood of normal donors and isolated by Ficoll-Paque Plus (Pharmacia Biotech, Piscataway, N.J.) density gradient centrifugation, and plated at a cell density of 2×10^6 cells/ml. Monocyte-derived macrophages (MDM) were generated from adherent human peripheral blood mononuclear cells by culture for 7 days with M-CSF (100 ng/ml). […] After 2 hr, cells were washed, and cultured for additional 48-72 hr, followed by analysis of HIV replication as determined by quantification of accumulated p24 in the supernatant. The production of p24 was determined by conventional sandwich ELISA, using ELISA plates pre-coated with capture anti-p24 antibodies provided by the AIDS Vaccine Program (SAIC Frederick, NCI-FCRDC, Frederick, Md.). The captured p24 antigen was detected using rabbit anti-HIV-1 anti-p24 antibody, and a secondary goat anti-rabbit IgG (peroxidase-labeled) antibody. The captured p24 protein was detected using a 3,3′,5,5′-tetramethylbenzidine and hydrogen peroxide detection system (KPL Laboratories, Gaithersburg, Md.). […]

B1: macrophage inflammatory protein-1β (protein)
chain: APMGSDPPTACCFSYTARKLPRNFVVDYYETSSLCSQPAVVFQTKRSKQVCADPSESWVQEYVYDLELN
Question: Which “inhibition of HIV-1JRFL infection of monocyte-derived macrophages (p24)” value does the source give for B1 here?
Answer: comparable inhibitory activities
